Measurements published in patent US20120207760A1.

B1: TCN-530 (5248_H10a) (antibody, V domains shown)
VH: QVQLVQSGAEVRKPGSSVKVSCKASGGPFMSYAIGWVRQAPGQGLEWMGGINPVFGRPHYAQKFQGRVTIATDDSTKTSYMELSSLTSEDTGMYYCASRYSRSSPGTFESWGQGTLVTVSS
VL: EIVMTQFPATLSVSPGERVTLSCRASQSVSNNLAWYQQKPGQPPRLLIYDASTRATGVPAKFSGTGSGTEFTLSISSLQSEDFAVYYCQQYHNWPPSYSFGLGTKLEIK
B2: TCN-528 (5087_P17) (antibody, V domains shown)
VH: QVQLVQSGSEVKKPGASVKVSCKASGYTFTNYDINWIRQAPGQGLEWMGWINPNSGTTGSAQRFQGRVTITVDTSITTVYMELSSLRSDDTAIYYCARGRELLRLQHFLTDSQSERRDCFDPWGQGTLVTVSS
VL: DIQMTQSPSSLSASVGDRVTITCRANQDIGIYLNWYQQNPGKVPKLLLHGASSLQGGVPSRFSASGSGTDFTLTIHSLQPEDLATYYCQQSRRLPYTFGQGTRVELK
B3: TCN-527 (5086_C06) (antibody, V domains shown)
VH: QVQLQESGPGLVKPSETLSLNCAVSGGSISNYYWSWIRQPPGKGLEWIGYISYNGRPKYNPSLTSRVTISVDTSKDQFSLELRSVTAADTALYYCARETRFGELLSPYDAFEIWGQGTMVTVSS
VL: DIQMTQSPSSLSASVGDRVTMTCRASQNIRSYLNWYQQRPGTAPKLLIYAASTLHSGVPSRFSGGGSGTDFTLTINNLQPEDFASYYCQQSYDNPQTFGQGTKVEIK
B4: TCN-563 (5237_B21) (antibody, V domains shown)
VH: QVQLAQSGAEVKRPGSSVKVSCTASGGIFRKNAISWVRQAPGQGLEWMGGIIAVFNTANYAQKFQGRVKITADESGNTAYMELSSLRSDDTAVYYCASHPKYFYGSGSYPDFWGQGTLVTVSS
VL: QSALTQPRSVSGSPGQSVTISCTGSSSDVGASNSVSWYQQHPGKAPKLVIYDVTERPSGVPHRFSGSKSGNTASLTVSGLQPEDEADYFCCAYGGKYLVVFGGGTKVTVL
B5: TCN-534 (5249_B02) (antibody, V domains shown)
VH: QVQLVQSGAEVKKPGSSVKVSCRESGGTFNGYTITWVRQAPGQGLEWMGGIIPMMGTVNYAQKLQGRVTITTDYFTKTAYMDLNNLRSEDTAMYYCVKIRYTGQQLLWGQGTLVTVSS
VL: DIQMTQSPSTLSASIGDRVTITCRASQSIASWLAWYQQKPGKAPKLLIYEAVNLESGVPSRFSGSGSGTDFTLTISSLQPDDFATYFCQHYGTISQTFGGGTKVEIK

Assays:
Conditions in all cases: remark: other sources report otherwise
[1] = molecular target: T1, recombinant homotrimeric HA, A/California/4/09 H1N1 (Influenza A virus A/California/4/09 (H1N1)); experiment: trimeric HA microarray, transfection set 3
[2] = molecular target: T2, recombinant homotrimeric HA, A/Egypt/3300-NAMRU3/08 H5N1 (Influenza A virus A/Egypt/3300-NAMRU3/08 (H5N1)); experiment: trimeric HA microarray, transfection set 3
[3] = molecular target: T3, recombinant homotrimeric HA, A/Hong Kong/1073/99 H9N2 (Influenza A virus A/Hong Kong/1073/99 (H9N2)); experiment: trimeric HA microarray, transfection set 3
[4] = molecular target: T4, recombinant homotrimeric HA, A/Hong Kong/2108/03 H9N2 (Influenza A virus A/Hong Kong/2108/03 (H9N2)); experiment: trimeric HA microarray, transfection set 3
[5] = molecular target: T5, recombinant homotrimeric HA, A/Indonesia/5/05 H5N1 (Influenza A virus A/Indonesia/5/05 (H5N1)); experiment: trimeric HA microarray, transfection set 3
[6] = molecular target: T6, recombinant homotrimeric HA, A/Japan/305/57 H2N2 (Influenza A virus A/Japan/305/57 (H2N2)); experiment: trimeric HA microarray, transfection set 3
[7] = molecular target: T7, recombinant homotrimeric HA, A/Solomon Islands/3/06 H1N1 (Influenza A virus A/Solomon Islands/3/06 (H1N1)); experiment: trimeric HA microarray, transfection set 3
[8] = molecular target: T8, recombinant homotrimeric HA, A/South Carolina/1/18 H1N1 (Influenza A virus A/South Carolina/1/18 (H1N1)); experiment: trimeric HA microarray, transfection set 3
[9] = molecular target: T9, recombinant homotrimeric HA, A/Vietnam/1203/04 H5N1 (Influenza A virus A/Vietnam/1203/04 (H5N1)); experiment: trimeric HA microarray, transfection set 3
[10] = molecular target: T10, recombinant homotrimeric HA, A/Wisconsin/67/05 H3N2 (Influenza A virus A/Wisconsin/67/05 (H3N2)); experiment: trimeric HA microarray, transfection set 3
[11] = molecular target: T11, recombinant homotrimeric HA, A/chicken/Vietnam/NCVD-016/08 H5N1 (Influenza A virus A/chicken/Vietnam/NCVD-016/08 (H5N1)); experiment: trimeric HA microarray, transfection set 3
[12] = molecular target: T12, recombinant homotrimeric HA, A/common magpie/Hong Kong/5052/07 H5N1 (Influenza A virus A/common magpie/Hong Kong/5052/07 (H5N1)); experiment: trimeric HA microarray, transfection set 3
[13] = molecular target: T13, recombinant homotrimeric HA, A/northern shoveler/California/HKWF115/07 (Influenza A virus A/northern shoveler/California/HKWF115/2007 (H6N1)); experiment: trimeric HA microarray, transfection set 3
[14] = molecular target: T14, recombinant homotrimeric HA, A/swine/Ontario/01911-2/99 H4N6 (Influenza A virus A/swine/Ontario/01911-2/99 (H4N6)); experiment: trimeric HA microarray, transfection set 3
[15] = molecular target: recombinant homotrimeric HA, A/Anhui/1/05 H5N1 (Influenza A virus A/Anhui/1/05 (H5N1)); experiment: trimeric HA microarray, transfection set 2
[16] = molecular target: T1, recombinant homotrimeric HA, …; experiment: trimeric HA microarray, transfection set 2
[17] = molecular target: T2, recombinant homotrimeric HA, …; experiment: trimeric HA microarray, transfection set 2
[18] = molecular target: T3, recombinant homotrimeric HA, A/Hong …; experiment: trimeric HA microarray, transfection set 2
[19] = molecular target: T4, recombinant homotrimeric HA, A/Hong …; experiment: trimeric HA microarray, transfection set 2
[20] = molecular target: T5, recombinant homotrimeric HA, …; experiment: trimeric HA microarray, transfection set 2
[21] = molecular target: T6, recombinant homotrimeric HA, …; experiment: trimeric HA microarray, transfection set 2
[22] = molecular target: recombinant homotrimeric HA, A/Netherlands/219/03 H7N7 (Influenza A virus A/Netherlands/219/03 (H7N7)); experiment: trimeric HA microarray, transfection set 2
[23] = molecular target: T7, recombinant homotrimeric HA, A/Solomon …; experiment: trimeric HA microarray, transfection set 2
[24] = molecular target: T8, recombinant homotrimeric HA, A/South …; experiment: trimeric HA microarray, transfection set 2
[25] = molecular target: T9, recombinant homotrimeric HA, …; experiment: trimeric HA microarray, transfection set 2
[26] = molecular target: T10, recombinant homotrimeric HA, …; experiment: trimeric HA microarray, transfection set 2
[27] = molecular target: T11, recombinant homotrimeric HA, …; experiment: trimeric HA microarray, transfection set 2
[28] = molecular target: T12, recombinant homotrimeric HA, A/common …; experiment: trimeric HA microarray, transfection set 2
[29] = molecular target: recombinant homotrimeric HA, A/duck/Yangzhou/02/05 H8N4 (Influenza A virus A/duck/Yangzhou/02/2005 (H8N4)); experiment: trimeric HA microarray, transfection set 2
[30] = molecular target: T13, recombinant homotrimeric HA, A/northern …; experiment: trimeric HA microarray, transfection set 2
[31] = molecular target: T14, recombinant homotrimeric HA, …; experiment: trimeric HA microarray, transfection set 2
[32] = molecular target: T1, recombinant homotrimeric HA, …; experiment: trimeric HA microarray, transfection set 4
[33] = molecular target: T5, recombinant homotrimeric HA, …; experiment: trimeric HA microarray, transfection set 4
[34] = molecular target: T6, recombinant homotrimeric HA, …; experiment: trimeric HA microarray, transfection set 4
[35] = molecular target: T7, recombinant homotrimeric HA, A/Solomon …; experiment: trimeric HA microarray, transfection set 4
[36] = molecular target: T8, recombinant homotrimeric HA, A/South …; experiment: trimeric HA microarray, transfection set 4
[37] = molecular target: T9, recombinant homotrimeric HA, …; experiment: trimeric HA microarray, transfection set 4
[38] = molecular target: T10, recombinant homotrimeric HA, …; experiment: trimeric HA microarray, transfection set 4

| Binder | Trimeric HA Binding RLU [15] [RLU] | Trimeric HA Binding RLU [16] [RLU] | Trimeric HA Binding RLU [17] [RLU] | Trimeric HA Binding RLU [18] [RLU] | Trimeric HA Binding RLU [19] [RLU] | Trimeric HA Binding RLU [20] [RLU] | Trimeric HA Binding RLU [21] [RLU] | Trimeric HA Binding RLU [22] [RLU] | Trimeric HA Binding RLU [23] [RLU] | Trimeric HA Binding RLU [24] [RLU] | Trimeric HA Binding RLU [25] [RLU] | Trimeric HA Binding RLU [26] [RLU] | Trimeric HA Binding RLU [27] [RLU] | Trimeric HA Binding RLU [28] [RLU] | Trimeric HA Binding RLU [29] [RLU] | Trimeric HA Binding RLU [30] [RLU] | Trimeric HA Binding RLU [31] [RLU] | other results |
| --- | --- | --- | --- | --- | --- | --- | --- | --- | --- | --- | --- | --- | --- | --- | --- | --- | --- | --- |
| B1 |  |  |  |  |  |  |  |  |  |  |  |  |  |  |  |  |  | Trimeric HA Binding RLU [1]: 21200 RLU; Trimeric HA Binding RLU [2]: 25500 RLU; Trimeric HA Binding RLU [3]: 10200 RLU; Trimeric HA Binding RLU [4]: 44 RLU; Trimeric HA Binding RLU [5]: 25500 RLU; Trimeric HA Binding RLU [6]: 5170 RLU; Trimeric HA Binding RLU [7]: 13800 RLU; Trimeric HA Binding RLU [8]: 17200 RLU; Trimeric HA Binding RLU [9]: 25200 RLU; Trimeric HA Binding RLU [10]: 3050 RLU; Trimeric HA Binding RLU [11]: 18000 RLU; Trimeric HA Binding RLU [12]: 5580 RLU; Trimeric HA Binding RLU [13]: 23500 RLU; Trimeric HA Binding RLU [14]: 123 RLU |
| B2 | 21200 | 44600 | 36800 | 322 | 33600 | 39700 | 23100 | 47200 | 26900 | 25200 | 23300 | 46000 | 22600 | 45300 | 19800 | 28400 | 49200 |  |
| B3 | 15200 | 21500 | 23600 | 557 | 25500 | 23400 | 20800 | 49100 | 19700 | 48100 | 20600 | 35800 | 20100 | 43800 | 17900 | 19300 | 30100 |  |
| B4 | 1570 | 21200 | 23900 | 49200 | 364 | 47300 | 11200 | 5420 | 26500 | 17800 | 31500 | 23700 | 36300 | 52800 | 6280 | 21900 |  |  |
| B5 |  |  |  |  |  |  |  |  |  |  |  |  |  |  |  |  |  | Trimeric HA Binding RLU [32]: 27000 RLU; Trimeric HA Binding RLU [33]: 948 RLU; Trimeric HA Binding RLU [34]: 14700 RLU; Trimeric HA Binding RLU [35]: 60 RLU; Trimeric HA Binding RLU [36]: 11800 RLU; Trimeric HA Binding RLU [37]: 23700 RLU; Trimeric HA Binding RLU [38]: 897 RLU |
